# Test results reported in the supplement of paper PMC5998384.
# How the values were obtained:
# HeLa Kyoto [1] = test: solubility in G1/S (NP-40 vs SDS abundance) (log2 ratio); higher = more soluble; details: cell cycle stage: G1/S
# HeLa Kyoto [2] = test: melting temperature (median over replicates), in situ; higher = more thermally stable
# HeLa Kyoto [3] = test: solubility change mitosis vs G1/S (difference of NP-40 vs SDS log2 ratios) (log2 ratio difference); higher = more soluble in mitosis
# HeLa Kyoto [4] = test: thermal stability score vs G1/S (z-score of summed log2 fold changes over temperatures); higher = more thermally stable than in G1/S
# [5] = cell cycle stage: early G1 (4.5 h after nocodazole release)
# 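For melting temperature (median over replicates), in situ in this document: HeLa Kyoto cells synchronized by double thymidine or nocodazole block, proteins quantified by TMT10plex mass spectrometry, three independent biological replicates.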
# 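For solubility change mitosis vs G1/S (difference of NP-40 vs SDS log2 ratios) in this document: synchronized HeLa Kyoto cells (double thymidine block for G1/S, nocodazole release for mitosis), protein amounts in NP-40 versus SDS lysates quantified by mass spectrometry, three biological replicates.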
# 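For solubility in G1/S (NP-40 vs SDS abundance) in this document: HeLa Kyoto cells arrested at G1/S by double thymidine block, proteins quantified by TMT10plex mass spectrometry in mild NP-40 versus SDS extracts, three biological replicates.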
# 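For thermal stability score vs G1/S (z-score of summed log2 fold changes over temperatures) in this document: synchronized HeLa Kyoto cells, proteins quantified by TMT10plex mass spectrometry, three biological replicates, mitosis taken 0.5 h after nocodazole release, G1/S directly after double thymidine block.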
Substance,solubility in G1/S (log2) (HeLa Kyoto [1]),melting temperature (HeLa Kyoto [2]; cell cycle stage: G1/S) [°C],melting temperature (HeLa Kyoto [2]; cell cycle stage: mitosis) [°C],solubility change mitosis (log2) (HeLa Kyoto [3]),thermal stability score (HeLa Kyoto [4]; [5]),thermal stability score (HeLa Kyoto [4]; cell cycle stage: mitosis)
MAEGGGCRERPDAETQKSELGPLMRTTLQRGAQWYLIDSRWFKQWKKYVGFDSWDMYNVGEHNLFPGPIDNSGLFSDPESQTLKEHLIDELDYVLVPTEAWNKLLNWYGCVEGQQPIVRKVVEHGLFVKHCKVEVYLLELKLCENSDPTNVLSCHFSKADTIATIEKEMRKLFNIPAERETRLWNKYMSNTYEQLSKLDNTVQDAGLYQGQVLVIEPQNEDGTWPRQTLQSKSSTAPSRNFTTSPKSSASPYSSVSASLIANGDSTSTCGMHSSGVSRGGSGFSASYNCQEPPSSHIQPGLCGLGNLGNTCFMNSALQCLSNTAPLTDYFLKDEYEAEINRDNPLGMKGEIAEAYAELIKQMWSGRDAHVAPRMFKTQVGRFAPQFSGYQQQDSQELLAFLLDGLHEDLNRVKKKPYLELKDANGRPDAVVAKEAWENHRLRNDSVIVDTFHGLFKSTLVCPECAKVSVTFDPFCYLTLPLPLKKDRVMEVFLVPADPHCRPTQYRVTVPLMGAVSDLCEALSRLSGIAAENMVVADVYNHRFHKIFQMDEGLNHIMPRDDIFVYEVCSTSVDGSECVTLPVYFRERKSRPSSTSSASALYGQPLLLSVPKHKLTLESLYQAVCDRISRYVKQPLPDEFGSSPLEPGACNGSRNSCEGEDEEEMEHQEEGKEQLSETEGSGEDEPGNDPSETTQKKIKGQPCPKRLFTFSLVNSYGTADINSLAADGKLLKLNSRSTLAMDWDSETRRLYYDEQESEAYEKHVSMLQPQKKKKTTVALRDCIELFTTMETLGEHDPWYCPNCKKHQQATKKFDLWSLPKILVVHLKRFSYNRYWRDKLDTVVEFPIRGLNMSEFVCNLSARPYVYDLIAVSNHYGAMGVGHYTAYAKNKLNGKWYYFDDSNVSLASEDQIVTKAAYVLFYQRRDDEFYKTPSLSSSGSSDGGTRPSSSQQGFGDDEACSMDTN [USP4],0.0816,48.4,48.5,-0.278,0.154,0.64
MRPLLLLALLGWLLLAEAKGDAKPEDNLLVLTVATKETEGFRRFKRSAQFFNYKIQALGLGEDWNVEKGTSAGGGQKVRLLKKALEKHADKEDLVILFADSYDVLFASGPRELLKKFRQARSQVVFSAEELIYPDRRLETKYPVVSDGKRFLGSGGFIGYAPNLSKLVAEWEGQDSDSDQLFYTKIFLDPEKREQINITLDHRCRIFQNLDGALDEVVLKFEMGHVRARNLAYDTLPVLIHGNGPTKLQLNYLGNYIPRFWTFETGCTVCDEGLRSLKGIGDEALPTVLVGVFIEQPTPFVSLFFQRLLRLHYPQKHMRLFIHNHEQHHKAQVEEFLAQHGSEYQSVKLVGPEVRMANADARNMGADLCRQDRSCTYYFSVDADVALTEPNSLRLLIQQNKNVIAPLMTRHGRLWSNFWGALSADGYYARSEDYVDIVQGRRVGVWNVPYISNIYLIKGSALRGELQSSDLFHHSKLDPDMAFCANIRQQDVFMFLTNRHTLGHLLSLDSYRTTHLHNDLWEVFSNPEDWKEKYIHQNYTKALAGKLVETPCPDVYWFPIFTEVACDELVEEMEHFGQWSLGNNKDNRIQGGYENVPTIDIHMNQIGFEREWHKFLLEYIAPMTEKLYPGYYTRAQFDLAFVVRYKPDEQPSLMPHHDASTFTINIALNRVGVDYEGGGCRFLRYNCSIRAPRKGWTLMHPGRLTHYHEGLPTTRGTRYIAVSFVDP [PLOD1],-0.0992,54.3,54.5,-0.0758,3.69,3.91
RBBP6,-0.908,49,49.9,0.511,-2.06,3.66
MDADDSRAPKGSLRKFLEHLSGAGKAIGVLTSGGDAQGMNAAVRAVVRMGIYVGAKVYFIYEGYQGMVDGGSNIAEADWESVSSILQVGGTIIGSARCQAFRTREGRLKAACNLLQRGITNLCVIGGDGSLTGANLFRKEWSGLLEELARNGQIDKEAVQKYAYLNVVGMVGSIDNDFCGTDMTIGTDSALHRIIEVVDAIMTTAQSHQRTFVLEVMGRHCGYLALVSALACGADWVFLPESPPEEGWEEQMCVKLSENRARKKRLNIIIVAEGAIDTQNKPITSEKIKELVVTQLGYDTRVTILGHVQRGGTPSAFDRILASRMGVEAVIALLEATPDTPACVVSLNGNHAVRLPLMECVQMTQDVQKAMDERRFQDAVRLRGRSFAGNLNTYKRLAIKLPDDQIPKTNCNVAVINVGAPAAGMNAAVRSAVRVGIADGHRMLAIYDGFDGFAKGQIKEIGWTDVGGWTGQGGSILGTKRVLPGKYLEEIATQMRTHSINALLIIGGFEAYLGLLELSAAREKHEEFCVPMVMVPATVSNNVPGSDFSIGADTALNTITDTCDRIKQSASGTKRRVFIIETMGGYCGYLANMGGLAAGADAAYIFEEPFDIRDLQSNVEHLTEKMKTTIQRGLVLRNESCSENYTTDFIYQLYSEEGKGVFDCRKNVLGHMQQGGAPSPFDRNFGTKISARAMEWITAKLKEARGRGKKFTTDDSICVLGISKRNVIFQPVAELKKQTDFEHRIPKEQWWLKLRPLMKILAKYKASYDVSDSGQLEHVQPWSV [PFKP],-0.0125,57.4,58.3,-0.138,-0.744,-1.49
MGRRRAPELYRAPFPLYALQVDPSTGLLIAAGGGGAAKTGIKNGVHFLQLELINGRLSASLLHSHDTETRATMNLALAGDILAAGQDAHCQLLRFQAHQQQGNKAEKAGSKEQGPRQRKGAAPAEKKCGAETQHEGLELRVENLQAVQTDFSSDPLQKVVCFNHDNTLLATGGTDGYVRVWKVPSLEKVLEFKAHEGEIEDLALGPDGKLVTVGRDLKASVWQKDQLVTQLHWQENGPTFSSTPYRYQACRFGQVPDQPAGLRLFTVQIPHKRLRQPPPCYLTAWDGSNFLPLRTKSCGHEVVSCLDVSESGTFLGLGTVTGSVAIYIAFSLQCLYYVREAHGIVVTDVAFLPEKGRGPELLGSHETALFSVAVDSRCQLHLLPSRRSVPVWLLLLLCVGLIIVTILLLQSAFPGFL [PREB],-0.0601,53.8,54.1,-0.103,-0.808,-1.93
MDGTRTSLDIEEYSDTEVQKNQVLTLEEWQDKWVNGKTAFHQEQGHQLLKKHLDTFLKGKSGLRVFFPLCGKAVEMKWFADRGHSVVGVEISELGIQEFFTEQNLSYSEEPITEIPGTKVFKSSSGNISLYCCSIFDLPRTNIGKFDMIWDRGALVAINPGDRKCYADTMFSLLGKKFQYLLCVLSYDPTKHPGPPFYVPHAEIERLFGKICNIRCLEKVDAFEERHKSWGIDCLFEKLYLLTEK [TPMT],0.0374,54,54,-0.18,-0.85,-0.417
